Experimental data published in patent publication US20190218553, “VON WILLEBRAND FACTOR (VWF)-TARGETING AGENTS AND METHODS OF USING THE SAME” (DUKE UNIVERSITY, published 2019).
Positions count from the first letter of the chain named.

Tests used:
[1] = biological target: T1, von Willebrand factor (VWF) (Homo sapiens, UniProt P04275 P04275:764-2813); assay: filter; Bmax 79%; 2 mM CaCl2, 37 C; settings: tags: factor VIII free, Haematologic Technologies Inc; label: 5'-32P
Experimental: (§1) Affinity constants (Kd values) were determined using double-filter nitrocellulose filter binding assays (Rusconi et al, Thromb. Haemost. $4:841-848 (2000)). All binding studies were performed in binding buffer F (20 mM HEPES, pH 7.4, 150 mM NaCl, 2 mM CaCl₂, and 0.01% BSA) at 37° C. Human purified VWF (factor VIII free) was purchased from Haematologic Technologies Inc. (Essex Junction, Vt.) and used in the double-filter nitrocellulose filter binding assay to determine the Kd of the aptamers. Briefly, RNA were end-labeled at the 5′ end with T4 polynucleotide kinase (New England Biolabs, Beverly, Mass.) and [γ³²P] ATP (Amersham Pharmacia Biotech, Piscataway, N.J.) (Fitzwater and Polisky, Methods Enzymol. 267:275-301 (1996)). End-labeled RNA was diluted in binding buffer F, heat denatured at 65° C. for 5 minutes, and subsequently equilibrated at 37° C. Direct binding was performed by incubating trace ³²P-RNA with varying concentrations of VWF protein in binding buffer F at 37° C. for 5 min. The fraction of the nucleic acid-protein complex which bound to the nitrocellulose membrane was quantified with a phosphorimager (Molecular Dynamics, Sunnyvale, Calif.). Non-specific binding of the radiolabeled nucleic acid was subtracted out of the binding such that only specific binding remained (Wong and Lohman, Proc. Natl. Acad. Sci. USA 90:5428-5432 (1993)).

[2] = biological target: T1, von Willebrand factor (VWF); assay: filter; Bmax 62%; 2 mM CaCl2, 37 C; settings: tags: factor VIII free, Haematologic Technologies Inc; label: 5'-32P
Experimental: as §1

[3] = biological target: T1, von Willebrand factor (VWF); assay: filter; Bmax 59%; 2 mM CaCl2, 37 C; settings: tags: factor VIII free, Haematologic Technologies Inc; label: 5'-32P
Experimental: as §1

[4] = biological target: T1, von Willebrand factor (VWF); assay: filter; Bmax 89%; 2 mM CaCl2, 37 C; settings: tags: factor VIII free human purified VWF, Haematologic Technologies Inc; label: 5'-32P
Experimental: as §1

[5] = biological target: T1, von Willebrand factor (VWF); assay: filter; Bmax 37%; 2 mM CaCl2, 37 C; settings: tags: factor VIII free, Haematologic Technologies Inc; label: 5'-32P
Experimental: as §1

[6] = biological target: T1, von Willebrand factor (VWF); assay: filter; Bmax 70%; 20 mM HEPES pH 7.4, 150 mM NaCl, 2 mM CaCl2, 0.01% BSA, 37 C; settings: tags: factor VIII free, Haematologic Technologies Inc; label: 5'-32P
Experimental: as §1

[7] = biological target: T1, von Willebrand factor (VWF); assay: filter; Bmax 72%; 2 mM CaCl2, 37 C; settings: tags: factor VIII free, Haematologic Technologies Inc; label: 5'-32P
Experimental: as §1

[8] = biological target: von Willebrand factor (VWF) in whole blood (Homo sapiens, UniProt P04275 P04275:764-2813); assay: inhibition; platelet adhesion to collagen under high shear, human whole blood; text gives 72.6; settings: protein: extract; tags: endogenous, hirudin-anticoagulated human whole blood
Experimental: The Venaflux™ microfluidics system (Cellix, Dublin, Ireland) measures platelet adhesion on a collagen surface. Human blood was collected into hirudin tubes from healthy volunteers by vena puncture. An aliquot containing 300 μl of whole blood treated with aptamer or platelet-binding buffer alone was flowed through collagen-coated micro-channels at 60 dynes for 3 minutes. Channels were then rinsed with saline for 3 minutes to wash away RBC and unbound platelets. Venaflux imaging software and Image Pro Plus were used to image bound platelets and calculate covered surface area. Aptamer was incubated at 95° C. for 3 minutes, placed on ice for 3 minutes, then incubated for 10 minutes at room temperature. After cooling, aptamer was kept on ice until use. Total surface area covered by bound platelets in treated blood was expressed as a percentage of total coverage in negative control blood. Statistical significance was determined by analysis of variance; IC₅₀ of the aptamer was calculated using a fitted linear regression curve.
To evaluate the inhibitory effect of the aptamer on platelet adhesion, human whole blood samples were treated with aptamer starting at 900 nmol/L with 2-fold dilutions to 14 nmol/L and tested by measuring platelet adhesion under high-shear stress. The aptamer prevented platelet adhesion to the collagen surface in a dose-dependent manner (FIG. 20-22).

[9] = biological target: T1, von Willebrand factor (VWF); assay: filter; Bmax 56%; 2 mM CaCl2, 37 C; settings: tags: factor VIII free, Haematologic Technologies Inc
Experimental: as §1

[10] = biological target: T1, von Willebrand factor (VWF); assay: filter; Bmax 60%; 2 mM CaCl2, 37 C; settings: tags: factor VIII free, Haematologic Technologies Inc; label: 5'-32P
Experimental: as §1

[11] = biological target: T1, von Willebrand factor (VWF); assay: filter; Bmax 75%; 2 mM CaCl2, 37 C; settings: tags: factor VIII free, Haematologic Technologies Inc; label: 5'-32P
Experimental: as §1

[12] = biological target: T1, von Willebrand factor (VWF); assay: filter; Bmax 64%; 2 mM CaCl2, 37 C; settings: tags: factor VIII free, Haematologic Technologies Inc; label: 5'-32P
Experimental: as §1

[13] = biological target: T1, von Willebrand factor (VWF); assay: filter; Bmax 90%; 2 mM CaCl2, 37 C; settings: tags: factor VIII free human purified VWF, Haematologic Technologies Inc; label: 5'-32P
Experimental: as §1

[14] = biological target: T1, von Willebrand factor (VWF); assay: filter; Bmax 10%; 2 mM CaCl2, 37 C; settings: tags: factor VIII free, Haematologic Technologies Inc; label: 5'-32P
Experimental: as §1

B1: T25 vrt13 (ssRNA)
RNA: ACGAACUGCCCUCAGCUACUUUCAUGUUGCUGACGCACAGACGU
modifications: rAfCrGmAmAmCfUrGfCfCfCfUmCmAmGmCmUmAmCmUmUmUmCmAmUmGmUmUmGmCmUmGrAfCrGfCrAmCmAmGmAfCrGfU-idT
B1 showed a Kd [1] of 1.9 nM.

B2: T25 vrt10 (ssRNA)
RNA: B1 RNA
modifications: rAfCrGrArAfCfUrGfCfCfCfUmCmAmGmCmUmAfCfUfUfUfCrAfUrGmUmUmGmCmUmGrAfCrGfCrAfCrArGrAfCrGfU-idT
For B2, the Kd [2] was 5.7 nM.

B3: T25 vrt12 (ssRNA)
RNA: B1 RNA
modifications: rAfCrGrArAfCfUrGfCfCfCfUfCrArGfCfUrAmCmUmUmUmCmAmUmGfUfUrGfCfUrGrAfCrGfCrAfCrArGrAfCrGfU-idT
B3 showed a Kd [3] of 7.1 nM.

B4: T25 vrt21 (ssRNA)
RNA: B1 RNA
modifications: rAfCrGrArAfCfUrGfCfCfCmUfCrArGfCfUrAfCfUfUfUfCrAfUrGfUfUrGfCfUrGmAfCrGfCrAfCrArGrAfCrGfU-idT
B4 showed a Kd [2] of 17 nM.

B5: T93 vrt1 (ssRNA)
RNA: ACGAACUGCCCUCUAUUUCAUUUGACGCACAGACGU
modifications: 2'-F C2,U7,C9,C10,C11,U12,C26,C28,C34,U36; ribo A1,G3,G8,A25,G27,A29,G35; rest 2'-OMe; 3' idT
In the case of B5, the Kd [4] is reported as 0.8 nM.

B6: T74 (ssRNA)
RNA: CCCACGAACUGCCCUCGAUCGACGCACAGACGU
modifications: 2'-F C and U; 2'-OH A and G; 3' idT
With B6 the Kd [5] was 23 nM.

B7: T59 vrt26 (ssRNA)
RNA: ACGAACUGCCCUCGAUCGACGCACAGACGU
modifications: 2'-F C9,C10,C11,C20,C22; ribo G21; rest 2'-OMe; 3' idT
B7 was tested, and the Kd [4] was 18 nM.

B8: VWF9.14 full length (ssRNA)
RNA: GGGAGGACGAUGCGGUGGACGAACUGCCCUCAGCUACUUUCAUGUUGCUGACGCACAGACGACUCGCUGAGGAUCCGAGA
modifications: 2'-F C and U; 2'-OH A and G
B8 gave a Kd [6] of 12 nM.

B9: DTRI-011 (ssRNA)
RNA: B7 RNA with A15U, U16A, C17A
modifications: mAmCmGmAmAmCmUmGfCfCfCmUmCmGmUmAmAmGmAfCrGfCmAmCmAmGmAmCmGfUidT
B9 showed a Kd [7] of 3.8 nM.

B10: T79 vrt7 (DTRI-031) (ssRNA)
RNA: ACGAACUGCCCUCGAUCGACGCACAGACGUUUUUU
modifications: mAmCmGmAmAmCmUmGfCfCfCmUmCmGmAmUmCmGmAfCfGfCmAmCmAmGmAmCmGmUmUmUmUmUmU-idT
B10 gave an IC50 [8] of 72.5 nM and a Kd [9] of 11.2 nM.

B11: DTRI-034 (ssRNA)
RNA: B10 RNA with A15U, U16A, C17A
modifications: mAmCmGmAmAmCmUmGfCfCfCmUmCmGmUmAmAmGmAfCfGfCmAmCmAmGmAmCmGmUmUmUmUmUmUidT
Binder B11 has a Kd [10] of 2.8 nM.

B12: T79 vrt4 (ssRNA)
RNA: B10 RNA
modifications: mAmCmGmAmAmCmUmGfCfCfCmUmCmGmAmUmCmGmAfCrGfCmAmCmAmGmAmCmGmUmUmUmUmUmU-idT
B12 was tested, and the Kd [11] was 13 nM.

B13: T79 (ssRNA)
RNA: B10 RNA
modifications: 2'-F C and U; 2'-OH A and G; 3' idT
B13 was tested, and the Kd [12] was 1.6 nM.

B14: T49 (ssRNA)
RNA: ACGAACUGCCCUCGAUUAUUCGACGCACAGACGU
modifications: 2'-F C and U; 2'-OH A and G; 3' idT
With B14 the Kd [10] was 10.5 nM.

B15: T95 vrt1 (ssRNA)
RNA: B14 RNA with G14U, A15U, A18U, C21U
modifications: 2'-F C2,U7,C9,C10,C11,U12,C24,C26,C32,U34; ribo A1,G3,G8,A23,G25,A27,G33; rest 2'-OMe; 3' idT
Work on B15 yielded a Kd [13] of 0.9 nM.

B16: T21 (ssRNA)
RNA: GGGAGGUCAGCUACUUUCAUGUUGCUGACGCACAGACGACUCGCUG
modifications: 2'-F C and U; 2'-OH A and G
With B16 the Kd [14] was 26 nM.
